Measurements taken from patent publication US20180155451A1 (published 2018).

T1: FcγRIIb extracellular domain with C-terminal His tag (human, UniProt P31994 43-217)
T1 construct: extracellular domain; Expressed in FreeStyle293 cells; used as analyte in Biacore; also called FcgRIIb; 2b; not shown: C-terminal His tag
T1 sequence (looked up): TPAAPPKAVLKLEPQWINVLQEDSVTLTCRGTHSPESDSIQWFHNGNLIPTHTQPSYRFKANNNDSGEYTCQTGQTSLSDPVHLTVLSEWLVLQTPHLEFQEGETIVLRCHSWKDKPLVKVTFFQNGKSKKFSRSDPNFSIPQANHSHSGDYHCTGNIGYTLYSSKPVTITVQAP

T2: FcγRIIb (extracellular domain, C-terminal His tag) (human, UniProt P31994 43-217)
T2 construct: extracellular domain; also called FcgRIIb; 2b; not shown: His tag attached to the C terminus
T2 sequence (looked up): T1 sequence (looked up)

T3: FcγRIIa R (extracellular domain, C-terminal His tag) (human, UniProt P12318 34-217)
T3 construct: extracellular domain; also called FcgRIIa R type; 2aR; not shown: His tag attached to the C terminus
T3 sequence (looked up): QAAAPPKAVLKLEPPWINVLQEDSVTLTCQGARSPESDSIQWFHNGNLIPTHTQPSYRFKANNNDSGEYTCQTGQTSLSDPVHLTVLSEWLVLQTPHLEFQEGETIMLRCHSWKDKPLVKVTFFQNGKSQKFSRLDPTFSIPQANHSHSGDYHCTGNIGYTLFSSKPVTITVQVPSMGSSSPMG

B1: GpH7-A5/GpH7-B3 variant L328_07I/GpL16-k0 (He Ab) (antibody, human IgG1, kappa)
heavy 1: not shown
heavy 2: not shown
light: DIVMTQSPLSLPVTPGEPASISCQASESLVHSNRNTYLHWYLQKPGQSPQLLIYKVSNRFSGVPDRFSGSGSGTDFTLKISRVEAEDVGVYYCSQNTHVPPTFGQGTKVEIERTVAAPSVFIFPPSDEQLKSGTASVVCLLNNFYPREAKVQWKVDNALQSGNSQESVTEQDSKDSTYSLSSTLTLSKADYEKHKVYACEVTHQGLSSPVTKSFNRGEC
notes: Substitution in one H chain only; position in EU numbering; also called L328I heterodimerized antibody
B2: GpH7-A5/GpH7-B3 variant P271_01G/GpL16-k0 (He Ab) (antibody, human IgG1, kappa)
heavy 1: not shown
heavy 2: not shown
light: B1 light
notes: Substitution in one H chain only; position in EU numbering; also called P271G heterodimerized antibody
B3: GpH7-A5/GpH7-B3 variant T335_04F/GpL16-k0 (He Ab) (antibody, human IgG1, kappa)
heavy 1: not shown
heavy 2: not shown
light: B1 light
notes: Substitution in one H chain only; position in EU numbering; also called T335F heterodimerized antibody
B4: GpH7-A5/GpH7-B3 variant S337_10E/GpL16-k0 (He Ab) (antibody, human IgG1, kappa)
heavy 1: not shown
heavy 2: not shown
light: B1 light
notes: Substitution in one H chain only; position in EU numbering; also called S337E heterodimerized antibody
B5: GpH7-A5/GpH7-B3 variant K334_16H/GpL16-k0 (He Ab) (antibody, human IgG1, kappa)
heavy 1: not shown
heavy 2: not shown
light: B1 light
notes: Substitution in one H chain only; position in EU numbering; also called K334H heterodimerized antibody
B6: GpH7-A5/GpH7-B3 variant T335_08L/GpL16-k0 (He Ab) (antibody, human IgG1, kappa)
heavy 1: not shown
heavy 2: not shown
light: B1 light
notes: Substitution in one H chain only; position in EU numbering; also called T335L heterodimerized antibody
B7: GpH7-A5/GpH7-B3 variant S267_07I/GpL16-k0 (He Ab) (antibody, human IgG1, kappa)
heavy 1: not shown
heavy 2: not shown
light: B1 light
notes: Substitution in one H chain only; position in EU numbering; also called S267I heterodimerized antibody
B8: GpH7-A5/GpH7-B3 variant S267_08L/GpL16-k0 (He Ab) (antibody, human IgG1, kappa)
heavy 1: not shown
heavy 2: not shown
light: B1 light
notes: Substitution in one H chain only; position in EU numbering; also called S267L heterodimerized antibody
B9: GpH7-A5/GpH7-B3 variant K334_18N/GpL16-k0 (He Ab) (antibody, human IgG1, kappa)
heavy 1: not shown
heavy 2: not shown
light: B1 light
notes: Substitution in one H chain only; position in EU numbering; also called K334N heterodimerized antibody
B10: GpH7-A5/GpH7-B3 variant L328_04F/GpL16-k0 (He Ab) (antibody, human IgG1, kappa)
heavy 1: not shown
heavy 2: not shown
light: B1 light
notes: Substitution in one H chain only; position in EU numbering; also called L328F heterodimerized antibody
B11: GpH7-A5/GpH7-B3 variant Y300_19Q/GpL16-k0 (He Ab) (antibody, human IgG1, kappa)
heavy 1: not shown
heavy 2: not shown
light: B1 light
notes: Substitution in one H chain only; position in EU numbering; also called Y300Q heterodimerized antibody
B12: GpH7-A5/GpH7-B3 variant P238_08L/GpL16-k0 (He Ab) (antibody, human IgG1, kappa)
heavy 1: not shown
heavy 2: not shown
light: B1 light
notes: Substitution in one H chain only; position in EU numbering; also called P238L heterodimerized antibody
B13: GpH7-A5/GpH7-B3 variant S239_08L/GpL16-k0 (He Ab) (antibody, human IgG1, kappa)
heavy 1: not shown
heavy 2: not shown
light: B1 light
notes: Substitution in one H chain only; position in EU numbering; also called S239L heterodimerized antibody
B14: GpH7-A5/GpH7-B3 variant S337_02A/GpL16-k0 (antibody, human IgG1, kappa)
heavy 1: not shown
heavy 2: not shown
light: B1 light
notes: Heterodimerized anti-glypican-3 IgG1; alteration in only one H chain (GpH7-B3 side); also called He Ab
B15: GpH7-A5/GpH7-B3 variant S337_06M/GpL16-k0 (antibody, human IgG1, kappa)
heavy 1: not shown
heavy 2: not shown
light: B1 light
notes: as for B14
B16: GpH7-A5/GpH7-B3 variant E333_09D/GpL16-k0 (antibody, human IgG1, kappa)
heavy 1: not shown
heavy 2: not shown
light: B1 light
notes: as for B14
B17: GpH7-A5/GpH7-B3 variant E333_15Y/GpL16-k0 (antibody, human IgG1, kappa)
heavy 1: not shown
heavy 2: not shown
light: B1 light
notes: as for B14
B18: GpH7-A5/GpH7-B3 variant S337_04F/GpL16-k0 (antibody, human IgG1, kappa)
heavy 1: not shown
heavy 2: not shown
light: B1 light
notes: as for B14
B19: GpH7-A5/GpH7-B3 variant S337_11K/GpL16-k0 (antibody, human IgG1, kappa)
heavy 1: not shown
heavy 2: not shown
light: B1 light
notes: as for B14
B20: GpH7-A5/GpH7-B3 variant S337_03V/GpL16-k0 (antibody, human IgG1, kappa)
heavy 1: not shown
heavy 2: not shown
light: B1 light
notes: as for B14
B21: GpH7-A5/GpH7-B3 variant E333_07I/GpL16-k0 (antibody, human IgG1, kappa)
heavy 1: not shown
heavy 2: not shown
light: B1 light
notes: as for B14
B22: GpH7-A5/GpH7-B3 variant I336_18N/GpL16-k0 (antibody, human IgG1, kappa)
heavy 1: not shown
heavy 2: not shown
light: B1 light
notes: as for B14
B23: GpH7-A5/GpH7-B3 variant E333_08L/GpL16-k0 (antibody, human IgG1, kappa)
heavy 1: not shown
heavy 2: not shown
light: B1 light
notes: as for B14

target: T1, FcγRIIb extracellular domain with …; assay: SPR (Biacore), antibody captured on antigen-peptide chip, FcgRIIb as analyte; binding relative to GpH7-A5/GpH7-B3/GpL16-k0 (HeCon Ab) = 100

Row | He/Con_2b | Binder
1 | 160 % of control | B1
2 | 193 % of control | B2
3 | 103 % of control | B3
4 | 107 % of control | B4
5 | 113 % of control | B5
6 | 104 % of control | B6
7 | 192 % of control | B7
8 | 109 % of control | B8
9 | 115 % of control | B9
10 | 219 % of control | B10
11 | 108 % of control | B11
12 | 204 % of control | B12
13 | 140 % of control | B13

target: T2, FcγRIIb (extracellular domain, …); assay: SPR (Biacore), antibody captured on antigen-peptide chip, FcγR as analyte; relative binding amount
Protocol: (§1) The heterodimerized antibodies He Abs in which one of the H chains was introduced with an alteration were assayed for their binding activities to each activating FcγR and inhibitory FcγR according to the method described in Example 4. […] The activating FcγRs in FIGS. 26, 27, 28, and 29 are FcγRIa, FcγRIIa (R), FcγRIIa (H), and FcγRIIIa, respectively.
(§2) Analysis of interaction between objective antibody and the FcγR was carried out using Biacore T100 (GE Healthcare). HBS-EP+ (GE Healthcare) was used as the running buffer, and the measurement temperature was set to 25° C. Chips produced by immobilizing the antigen peptide by the amine coupling method to a Series S Sencor Chip CM5 (GE Healthcare), or alternatively, chips produced by allowing preliminarily biotinylated antigen peptides to interact with and immobilize onto a Series S Sensor Chip SA (certified) (GE Healthcare) were used. Antibodies of interest were captured onto an antigen peptide-immobilized chip, and allowed to interact to each FcγR diluted with running buffer. To regenerate and repeatedly use the chip, the antibodies captured on the chip were washed off by reacting 10 mM glycine-HCl, pH 1.5.

Row | He/Con_2b | Binder
14 | 97.2 % of control (GpH7-A5/GpH7-B3/GpL16-k0 = 100) | B14
15 | 96.7 % of control (GpH7-A5/GpH7-B3/GpL16-k0 = 100) | B15
16 | 94.3 % of control (GpH7-A5/GpH7-B3/GpL16-k0 = 100) | B16
17 | 94.4 % of control (GpH7-A5/GpH7-B3/GpL16-k0 = 100) | B17
18 | 97.8 % of control (GpH7-A5/GpH7-B3/GpL16-k0 = 100) | B18
19 | 94.3 % of control (GpH7-A5/GpH7-B3/GpL16-k0 = 100) | B19
20 | 98.9 % of control (GpH7-A5/GpH7-B3/GpL16-k0 = 100) | B20
21 | 96.2 % of control (GpH7-A5/GpH7-B3/GpL16-k0 = 100) | B21
22 | 97.6 % of control (GpH7-A5/GpH7-B3/GpL16-k0 = 100) | B22
23 | 95 % of control (GpH7-A5/GpH7-B3/GpL16-k0 = 100) | B23

target: T3, FcγRIIa R (extracellular domain, …); assay: as above
Protocol: as §1, §2

Row | He/Con_2aR | Binder
24 | 105 % of control (GpH7-A5/GpH7-B3/GpL16-k0 = 100) | B14
25 | 105 % of control (GpH7-A5/GpH7-B3/GpL16-k0 = 100) | B15
26 | 103 % of control (GpH7-A5/GpH7-B3/GpL16-k0 = 100) | B16
27 | 101 % of control (GpH7-A5/GpH7-B3/GpL16-k0 = 100) | B17
28 | 105 % of control (GpH7-A5/GpH7-B3/GpL16-k0 = 100) | B18
29 | 103 % of control (GpH7-A5/GpH7-B3/GpL16-k0 = 100) | B19
30 | 106 % of control (GpH7-A5/GpH7-B3/GpL16-k0 = 100) | B20
31 | 104 % of control (GpH7-A5/GpH7-B3/GpL16-k0 = 100) | B21
32 | 104 % of control (GpH7-A5/GpH7-B3/GpL16-k0 = 100) | B22
33 | 103 % of control (GpH7-A5/GpH7-B3/GpL16-k0 = 100) | B23
